Target: CDK5 (full-length), His-tag cleaved (human, UniProt Q00535 1-292)
Experiment: SEC

binding result: binds
B1: cyclin B1 (amino acids 152-433, C167S, C238S, C350S), co-expressed with CDK5 from a single 438-B vector (domain or fragment)
chain: AVNDVDAEDGADPNLSSEYVKDIYAYLRQLEEEQAVRPKYLLGREVTGNMRAILIDWLVQVQMKFRLLQETMYMTVSIIDRFMQNNSVPKKMLQLVGVTAMFIASKYEEMYPPEIGDFAFVTDNTYTKHQIRQMEMKILRALNFGLGRPLPLHFLRRASKIGEVDVEQHTLAKYLMELTMLDYDMVHFPPSQIAAGAFSLALKILDNGEWTPTLQHYLSYTEESLLPVMQHLAKNVVMVNQGLTKHMTVKNKYATSKHAKISTLPQLNSALVQDLAKAVAKV

Source: paper doi:10.1101/2025.09.10.675329 (bioRxiv, 2025)
